Biological target: asymmetric nucleosome with H2B-Ser6 tri-ADP-ribose on one side only (Nuc-H2B-ADPr3) (Xenopus laevis | not stated) (UniProt P02281)
Assay: cryo-EM structure; modified nucleosomes at 1 µM, ALC1 at 6 µM, ADP-BeF3 at 1 mM, incubated 60 minutes on ice before vitrification

Sequence of ALC1 (Amplified in Liver Cancer 1), wild-type construct (16-879) (Q86WJ1 16-879): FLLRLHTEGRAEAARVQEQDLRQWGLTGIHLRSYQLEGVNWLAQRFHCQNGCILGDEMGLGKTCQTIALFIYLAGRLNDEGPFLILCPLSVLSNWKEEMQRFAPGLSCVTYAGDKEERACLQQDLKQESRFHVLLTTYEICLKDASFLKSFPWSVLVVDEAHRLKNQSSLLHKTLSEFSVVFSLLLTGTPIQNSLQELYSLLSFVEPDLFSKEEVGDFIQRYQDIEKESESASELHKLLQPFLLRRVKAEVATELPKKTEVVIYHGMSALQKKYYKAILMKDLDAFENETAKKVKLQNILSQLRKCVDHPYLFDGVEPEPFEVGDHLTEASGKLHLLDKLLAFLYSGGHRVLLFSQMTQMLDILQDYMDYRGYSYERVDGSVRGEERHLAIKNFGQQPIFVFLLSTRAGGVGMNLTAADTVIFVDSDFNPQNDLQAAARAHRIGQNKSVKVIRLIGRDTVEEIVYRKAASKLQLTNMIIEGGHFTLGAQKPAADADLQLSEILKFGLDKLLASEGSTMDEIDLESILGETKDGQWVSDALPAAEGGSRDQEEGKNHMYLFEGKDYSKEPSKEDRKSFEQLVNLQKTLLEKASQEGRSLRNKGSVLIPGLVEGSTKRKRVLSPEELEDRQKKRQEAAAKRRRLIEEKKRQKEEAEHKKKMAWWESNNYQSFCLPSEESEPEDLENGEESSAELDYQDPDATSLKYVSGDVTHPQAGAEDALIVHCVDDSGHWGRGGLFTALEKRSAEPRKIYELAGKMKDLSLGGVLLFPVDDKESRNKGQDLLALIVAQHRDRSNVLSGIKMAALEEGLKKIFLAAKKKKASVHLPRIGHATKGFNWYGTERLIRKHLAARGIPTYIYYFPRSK

In the case of “ALC1 (Amplified in Liver Cancer 1), wild-type construct (16-879) (from UniProt Q86WJ1 16-879) (enzyme)”, the stoichiometry N is reported as 1.

Source: article PMC10837151
